Experimental data as given in publication PMC5499601 (Nucleic Acids Research, 2017).
Residue numbers refer to the chain shown, from its start. Numbers in names are those of the source.

Biological target: the molecule itself
Experiment: SEC

B1: wild-type Bacillus subtilis Spo0J (BsSpo0J) (natural protein)
chain: MAKGLGKGINALFNQVDLSEETVEEIKIADLRPNPYQPRKHFDDEALAELKESVLQHGILQPLIVRKSLKGYDIVAGERRFRAAKLAGLDTVPAIVRELSEALMREIALLENLQREDLSPLEEAQAYDSLLKHLDLTQEQLAKRLGKSRPHIANHLRLLTLPENIQQLIAEGTLSMGHGRTLLGLKNKNKLEPLVQKVIAEQLNVRQLEQLIQQLNQNVPRETKKKEPVKDAVLKERESYLQNYFGTTVNIKRQKKKGKIEIEFFSNEDLDRILELLSERES
In the case of B1, the “stoichiometry N” value is reported as 2.

B2: BsSpo0J R105E (natural protein)
chain: B1 chain with R105E
In the case of B2, the “stoichiometry N” value is reported as 2.

B3: BsSpo0J G77S (natural protein)
chain: B1 chain with G77S
B3 was tested, and the “stoichiometry N” value was 2.

B4: BsSpo0J R79A (natural protein)
chain: B1 chain with R79A
For B4, the “stoichiometry N” value was 2.

B5: BsSpo0J P62A (natural protein)
chain: B1 chain with P62A
In the case of B5, the “stoichiometry N” value is reported as 2.
